The DeepSol protein solubility set

Experiment: soluble on expression in E. coli; label from the status in PepcDB or PDB records

Sequence | soluble on expression in E. coli
MSLIPVVLSGGAGTRLWPVSREGQPKPFMRLPDGQTLLGKTYRRAAGLLAGHGEIVTVTNREHYFQSKDQFHAARLGRHRGHFILEPTGRNTAPAIAVAALGLQAEHGDAAVLVVMPADHLIRNEEAFREAVGHAARLAVAGHLVTFGVVPDAAETGFGYIELGDRLDEQGAAKVRRFVEKPDEETRRRYVESGGFLWNSGMFCFTASTLVDELAQHAPALLEQARACLAASAAVKMADGIQHELAGEGFAALPDISIDYALMERSARVAVVPAAFDWSDIGSWGAMSALLDADAEGNRGSGDTLFVDTRNTFVQSDGRLVATVGVDDLVVVDTSDALLIARADRVQEVRRVVQRLKDEREGHHHHHH | soluble
MAHHHHHHSLDSFIMRLLNKPVPGGVAVVDLGEEGPPPRAFYQGKPVLVVREEGRRWIAVVGIPLSTKPGPQKLEVRAATGNHEERFSVGSKHYREQRITLKNKRQVNPLPEDLKRIERELAEQTAAYRRFSPGLPSNLMLDKPVDGPLSSPFGLRRFFNGEERNPHSGLDFAVPAGTPIKAPAAGKVILIGDYFFNGKTVFVDHGQGFISMFCHLSKIDVKLGQQVPRGGVLGKVGATGRATGPHMHWNVSLNDARVDPAIFIGAFQPEG | soluble
MSQLVECVPNFSEGNNQEVIDAISQAISQTPGCVLLDVDAGPSTNRTVYTFVGQPECVVEGALSAARTASQLIDMRKHKGEHPRMGALDVCPFIPVRGVSMDECVLCAKAFGQRLAEELNVPVYLYGEAAQMPSRQTLPAIRAGEYEALPEKLKQAEWVPDFGPSSFVPSWGATVTGARKFLIAFNINLLSTKEQAHRIALNLREQGRGKDQPGRLKKVQGIGWYLEEKNLAQVSTNLLDFEVTALHTVYEEARREAQELNLPVVGSQLVGLVPLKALLDAAAFYCDKEKLFVLEEEHRIRLVVNRLGLDSLAPFDPKERIIEYLVPDSGPEQSLLDASLRAFVREVGARSAAPGGGSVAAAVAALGAALASMVGQMTYGRRQFDHLDSTMRRLIPPFHAASAQLTSLVDADARAFAACLGAIKLPKNTPEERDRRTCALQEGLRQAVAVPLKLAETVSQLWPALQELAQCGNLSCLSDLQVAAKALETGVFGAYFNVLINLKDMTDDVFKEKTRHRISSLLQEAKTQAALVLGSLEARKE | soluble
MSSKEQKTPEGQAPEEIIMDQHEEIEAVEPEASAEQVDPRDEKVANLEAQLAEAQTRERDGILRVKAEMENLRRRTELDIEKAHKFALEKFINELLPVIDSLDRALEVADKANPDMSAMVEDIELTLKSMLDVVRKFGVEVIAETNVPLDPNVHQAIAMVESDDVAPGNVLGIMQKGYTLNGRTIRAAMVTVAKAKA | soluble
DPDEDSDNSAIYVQGLNDSVTLDDLADFFKQCGVVKMNKRTGQPMIHIYLDKETGKPKGDATVSYEDPPTAKAAVEWFDGKDFQGSKLKVSLARKKPPMN | soluble
MRFAVLGSGSQGNGTLIVSADTCVLVDCGFSLRETERRLLRLGVDPAQLSAILVTHEHADHVHGVGLLSRRYNLPVYLSQGTLRGMRKPVEVAGFVRGGESLQIGALRIDVIAVAHDAQEPTQFVFSDGQRRFGLLTDLGSYCAGVLDGYRGLDALMIEANHCRDRLARGYYPYFLKQRVGGDLGHLNNHQAASLVAELGWQDLQHLVLAHLSSKNNLPQLARQCFVDTLGCDPDWLQLADQDSGLDWRHIALEHHHHHH | not soluble
MSGLSMRNPERRIETNPFDVDAWNLLLREHQSRPIDQERDFYESLVKQFPNSGRYWKAYIEHELRSKNFENVEKLFSRCLVSVLNIDLWKCYIHYVFETKGQRDQYREEMAKAYDFALEKVGMDVQAYSIFTEYIAFLKKVPAVGQYAENQRITAVRKIYQKALATPMHNLELIWNDYCTYEKAINITLAEKLIAERGKEYQNARRVEKDLQQMTRGLNRQAVSVPPKGTATEFKQVELWKNLIAWEKTNPLQTEEYGQHARRVVYTYEQSLLCLGYYPDIWYEAAMFLQEASHTLDEKGDVKMAQVLKLETISLYERAITGLMKESKLLYFAYADFQEEHKQFEAVKNIYDRLLGIEHINPTLTYVQLMRFIRRSEGPNNARLVFKRAREDKRTGYQVFVAAALLEYNCMKDKEVAIRVFKLGLKKYENEPEFGLAYADFLSNLNEDNNTRVVFERILTSSKLPADKSIRIWDRFLDFESCVGDLASILKVEKRRKTAYEEAQKDQTMNHSMLVIDRYKFMDLMPCSGEQLKLIGYNALKGTESIAGPSFVGSKNVPTHGPQAASAIMGGAGGHADVARYGFPRPDISQMIPFKPRVNCTASFHPVPGGVFPPPQSVAHLMSLLPPPTCFIGPFINVELLCNMINNMQLPNVSYPKSEDNMLGPMLEQDVKKDMYQLLATTSDPSAVVRSSALSDLKRKRGDSDDEEDYSHLGAVIGSLGSRDAYKRRMNKKNE | not soluble
MSLGAWPTAPITIVVPFAAGQTGDIIARLLGKELAERLKQPFVVDNKGGGGGRIGTAFVAKAKPDGYTLLMTSTGPYAIAPALYPRTMQYDPVRDFTGIAETATTPQIIAVSPKSGINTFADLVKQAKKSDMSYGSAGNGSTQHLTMELLKKELNFPLVHVPFKGSSESKTQVISGMIPVTSDSLPAIYTNIKSGQMKAIAVVDKQRSAYLPDVPTLAESGFPSLSTVAFFGLVAPKNTPKEVVNLLNKNLTEIYRTPDFQQKMKELAMTPPAEKTAEQFTAYLTEEVARWKKIVQDSNVKVEEGHHHHHH | soluble
MVYVAITIVRVPGPAFSYHCPDFVRLYIEAMGYSPTIAPARIRVWRNAITEQGFVAVCAIDDSSDNPAAIGEGIVGIGYGFTGRSEHWWDQQIHRGLAEQKCPPVARPYFELAELHVSPRAQGQGIGRSLLHALIKHCGHELILLSTPEVPDEKNAAFHLYRSCGFDDLLRNFMFEGDRRPFAVLQRKAHRN | not soluble
MGSSHHHHHHSSGLVPRGSHQPALAAEPAQLRIGYQKAVSSLVLAKQHRLLEQRFPRTKITWVEFPAGPQLLEALNVGSIDLGGAGDIPPLFAQAAGADLLYVGWVPPTPKAETILVPSKSALRTVADLKGKRIAFQKGSSAHNLLLRVLAKSGLSMRDITPLYLSPANARAAFAAGQVDAWAIWDPWYSALTLDGSARLLANGEGLGLTGGFFLSSRRYATAWGPFVQQVMGTLNQADGLLERDRAGSIKTLAQVSGLPPAVVERTLAHRPPASVQPLSAQVIKAQQATADLFYAQRLLPKRVLVAPAVWRAPDAGTAQAVSK | soluble
GHMDQSDFSPYIEIDLPSESRIQSLHKSGLAAQEWVACEKVHGTNFGIYLINQGDHEVVRFAKRSGIMDPNENFFGYHILIDEFTAQIRILNDLLKQKYGLSRVGRLVLNGELFGAKYKHPLVPKSEKWCTLPNGKKFPIAGVQIQREPFPQYSPELHFFAFDIKYSVSGAEEDFVLLGYDEFVEFSSKVPNLLYARALVRGTLDECLAFDVENFMTPLPALLGLGNYPLEGNLAEGVVIRHVRRGDPAVEKHNVSTIIKLRCSSFMELKHPGKQKE | soluble
MPPKKNVVEEKPALIGRLGTNLKVGILGLPNVGKSTFFNVLTKSEAQAENFPFCTIDPNESRVAVQDDRFDWLVNHYKPASKVPAFLNVTDIAGLVKGASEGQGLGNAFLSHVSACDALFHLCRAFDDDDVTHVEGEVDPVRDLEIISNELFAKDLQFIDGPLDKVEKLFTRANDKTKKIEYDTLVRVKKCLEEKKPVRQELWNEKEIEILNKHLFLTAKPIVYLVNLSEKDYIRKKNKWLPKIKAWIDTNDAGAVLIPFSGAFELKLLDMPEDERQKYLKEQGVTSNLDKIVHTGYKALQLEYFFTSGEDEVKAWTIQVGTPAPKAAGRIHTDFEKGFIMAEVMKVADLIELGDEAKCKAGGKYRQQGKTYIVQDGDVIFFKFNAGAGLQAKKK | not soluble
QVQLQESGPGLVAPSQSLSITCTVSGFSLTGYGVNWVRQPPGKGLEWLGMIWGDGNTDYNSALKSRLSISKDNSKSQVFLKMNSLHTDDTARYYCARERDFRLDYWGQGTTLTVSS | soluble
MSFTVIIPARFASSRLPGKPLADIKGKPMIQHVFEKALQSGASRVIIATDNENVADVAKSFGAEVCMTSVNHNSGTERLAEVVEKLAIPDNEIIVNIQGDEPLIPPVIVRQVADNLAKFNVNMASLAVKIHDAEELFNPNAVKVLTDKDGYVLYFSRSVIPYDRDQFMNLQDVQKVQLSDAYLRHIGIYAYRAGFIKQYVQWAPTQLENLEKLEQLRVLYNGERIHVELAKEVPAVGVDTAEDLEKVRAILAANGSHHHHHH | soluble
SLRTEQEMMDVILTIAKKEERIRAVYMNGSRTNSNVPKDLFQDYDIVYVVTDIAPFIQEQQWLKKFGEPLMIQEPDQLDAGIGVNRDFSRRYAFLMLFTDGNRIDLTLQTKETMREVYENDTLTVPLLDKDHCLPPIPPPSDSDYHVKEPTEGEFISCTNNFWWCLQNVAKGIWRDELPYAKQMFELTTRASLDEMVNWWIGLENDFQLSTGKLGKYFKKHLPPPYWAMYEATYANSDYEQMWESIFIACDLFRTLAKDVAAACSFTYPETDDRNMTDYLHRVKNLSADATDM | soluble
MSLQEWTKEDSLRLRKLLDSDQELNLNQDAVRQIDFGSAVGTPRMSVEKKWMLPDESLPEALPKPKVVLSLMPYKANTPYNWDPVFQKKIRMDKNTWRGDPHYEMRHQRSYSNWAHNPMAGGVRKSLEEIRASGVRFRQLSERANGMMVNSVVMDSPIPLFGGSGVYINGGTIGGLDLMAVFTKNFWDKKGKERRERTLEVLRTYGDSTTVLINRPIEQIAREGHHHHHH | soluble
MKAKTDFFHMKQAGEPIVMVTAYDFPSAKLAEQAGVDMILVGDSLGMVVLGYDSTIPVTVDDMIHHTKAVRRGAPNTFIVTDMPFMSYHASKEEALQNARRIMQESGANAVKVEGADEVVDMIAALTKAGVPVVAHLGLTPQSVGVLGGYKVQGKDAESAKKLLDDAKQCEQAGAIALVLECVPKQLGAAMARELTIPVIGIGAGAEVDGQVLVYHDLLGYGVTRVPKFVKQYASIQETIVEALANYVADVKLRQFPEPAHTFTMKEEEWVALYGGKQG | not soluble
MRVHEPNIIFEDDKHKFIWLGLDESENEKGILTNQYLIVHEGKGYLLDPGGYFVFERVYQNVTRFVKPENIVTILYSHQDPDVIGSLNLWVDLAPNATFYVSALWERFLPHLGAELKGRIVDIPDEGMSIDFIRAIPAHFMHSPGNFHYYDTYAKIYFSGDLGAAIFKDKWYLFVEDFESHIKLMEPFHRRYIASKKAIDIWLKKIEGLEINVIAPQHGAIFEGENAKKFIQWLRNLDKVGLDLME | soluble
MSLKFVGLVGSNAEQSYNRKLLEYIRKQFKLKFELELLEIDEVPMFNQDQSWKDSFQLRLLYNKIIRADGVIIATPEHNHTITAALKSVLEWLSCEVHPFENKPVMIVGASYYDQGTSRAQVHLRKILDAPGVNAYTLPGNEFLLGKAKEAFDDNGNIINQGTVDFLETCLDNFMSYVGVVSKLQKPKPIEPEDLDCNHPIATTITEVDPDDPEWVEKVAEITGAVSGDAYVKLDHGILTVDQINMFLKAMPFELTYADDNNQFLYYNNAHQDPDTMYAKRIPEQSGNRLSTVHNSLPAGRMKNVEWVIGTLRNGNQEYVRTLIPSPNPAVLNTHNYQAMYYDDGSFAGINEIVFNFKPWLDWYLQTTGQRLVGGEGHHHHHH | soluble
GPGSMALRDIVGKQMLRQTVLQPRLKLPAGRVVSIEEGWRLARLVREGEEHASAVAVEAAEGMVAPSSVVLEDDVSKRILLLRHKKRKEGDTKAAVRYAQRSRAVPVVGKVAPEVRDIALNVLRKNPIGRAELRARHERSKAKRATKGSDSTRAKRAGRL | not soluble
